Measurements reported in publication PMC5461033 (The Journal of Cell Biology, 2017).

T1: FLAG-Sec16 (1,101–1,600 aa) (human, UniProt O15027-4 1101-1600)
T1 sequence: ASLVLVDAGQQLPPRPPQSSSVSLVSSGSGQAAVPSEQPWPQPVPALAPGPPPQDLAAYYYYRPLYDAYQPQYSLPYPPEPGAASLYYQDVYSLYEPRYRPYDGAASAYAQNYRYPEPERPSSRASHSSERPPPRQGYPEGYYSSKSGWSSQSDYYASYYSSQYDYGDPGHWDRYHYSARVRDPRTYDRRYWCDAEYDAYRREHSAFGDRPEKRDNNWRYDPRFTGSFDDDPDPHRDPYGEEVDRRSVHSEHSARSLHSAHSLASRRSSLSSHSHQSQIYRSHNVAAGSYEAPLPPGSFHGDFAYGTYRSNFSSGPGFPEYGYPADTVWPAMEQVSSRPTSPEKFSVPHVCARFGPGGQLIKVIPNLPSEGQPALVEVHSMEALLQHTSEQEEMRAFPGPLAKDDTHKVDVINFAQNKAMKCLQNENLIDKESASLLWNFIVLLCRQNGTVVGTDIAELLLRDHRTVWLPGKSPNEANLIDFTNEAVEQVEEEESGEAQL

B1: GST-tagged TANGO1-PRD (1,651–1,907 aa) (domain or fragment)
chain: NTQNPPRRGPLSQNGSFGPSPVSGGECSPPLTVEPPVRPLSATLNRRDMPRSEFGSVDGPLPHPRWSAEASGKPSPSDPGSGTATMMNSSSRGSSPTRVLDEGKVNMAPKGPPPFPGVPLMSTPMGGPVPPPIRYGPPPQLCGPFGPRPLPPPFGPGMRPPLGLREFAPGVPPGRRDLPLHPRGFLPGHAPFRPLGSLGPREYFIPGTRLPPPTHGPQEYPPPPAVRDLLPSGSRDEPPPASQSTSQDCSQALKQSP
B2: GST-tagged TANGO1-PRDΔ60 (1,651–1,847 aa) (domain or fragment)
chain: NTQNPPRRGPLSQNGSFGPSPVSGGECSPPLTVEPPVRPLSATLNRRDMPRSEFGSVDGPLPHPRWSAEASGKPSPSDPGSGTATMMNSSSRGSSPTRVLDEGKVNMAPKGPPPFPGVPLMSTPMGGPVPPPIRYGPPPQLCGPFGPRPLPPPFGPGMRPPLGLREFAPGVPPGRRDLPLHPRGFLPGHAPFRPLGS

Biological target: T1, FLAG-Sec16 (1,101–1,600 aa)
Test: pull-down

Row | Binder | binding result
1 | B1 | binds
2 | B2 | binds
